Results as given in PMC1952073, “The N-Myc Down Regulated Gene1 (NDRG1) Is a Rab4a Effector Involved in Vesicular Recycling of E-Cadherin” (PLoS ONE, 2007).

Biological target: T1, recombinant flag-tagged NDRG1 purified from Drosophila S2 cells (human, UniProt Q92597-1 1-394)
T1 construct: NDRG1; The vector pMT/BiP/V5-His adds a BiP secretion signal (the protein was collected as secreted protein); also called NDRG1flag; NDRG1Flag; not shown: Flag, C-terminal, kept
Assay: pull-down; NDRG1Flag bound to M2 agarose; 1 microgram of purified Rab4aGST loaded with 10 µM GTPγS (30 min, 37 °C) in 20 mM HEPES, 1 mM MgCl2, 1 mM DTT, 100 mM potassium acetate, incubated 1 h; Western blot
Conditions: both partners purified

T1 sequence (Q92597 whole entry): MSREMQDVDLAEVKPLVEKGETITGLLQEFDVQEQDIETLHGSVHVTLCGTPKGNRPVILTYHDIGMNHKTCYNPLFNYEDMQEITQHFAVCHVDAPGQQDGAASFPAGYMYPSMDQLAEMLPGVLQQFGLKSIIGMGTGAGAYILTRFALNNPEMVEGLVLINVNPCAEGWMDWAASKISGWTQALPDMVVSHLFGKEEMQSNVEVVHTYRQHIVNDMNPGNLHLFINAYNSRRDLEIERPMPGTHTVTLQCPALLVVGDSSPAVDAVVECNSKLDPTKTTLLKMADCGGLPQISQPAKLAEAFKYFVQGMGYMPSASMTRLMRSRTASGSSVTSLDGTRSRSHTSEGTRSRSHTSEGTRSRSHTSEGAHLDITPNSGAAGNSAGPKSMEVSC

B1: Rab4a produced as a GST fusion protein (natural protein, UniProt P20338 1-218, looked up)
chain: MSQTAMSETYDFLFKFLVIGNAGTGKSCLLHQFIEKKFKDDSNHTIGVEFGSKIINVGGKYVKLQIWDTAGQERFRSVTRSYYRGAAGALLVYDITSRETYNALTNWLTDARMLASQNIVIILCGNKKDLDADREVTFLEASRFAQENELMFLETSALTGENVEEAFVQCARKILNKIESGELDPERMGSGIQYGDAALRQLRSPRRAQAPNAQECGC
notes: Rab4a amplified from a prostate cDNA library and cloned in PGEX2T; also called Rab4aGST; recombinant Rab4a; source: E. coli BL21 (DE3), purified (glutathione agarose)
B1: binds.
